This is an account of results in paper PMC7577971, “Antibody-mediated disruption of the SARS-CoV-2 spike glycoprotein” (Nature Communications, 2020).

The assay has as its target T1, stabilised, trimeric ectodomain of the SARS-CoV-2 spike glycoprotein (FUR 2P) (SARS-CoV-2, Wuhan-Hu-1 (YP_009724390.1), R682S | R685S | K986P | V987P).
T1 construct: also called S trimer; trimeric spike
Nature of the assay: BLI. Conditions: both partners purified.

B1: CR3022 Fab (tag cleaved with TEV, as used in binding assays) (Fab, V domains shown)
VH: QMQLVQSGTEVKKPGESLKISCKGSGYGFITYWIGWVRQMPGKGLEWMGIIYPGDSETRYSPSFQGQVTISADKSINTAYLQWSSLKASDTAIYYCAGGSGISTPMDVWGQGTTVTVAS
VL: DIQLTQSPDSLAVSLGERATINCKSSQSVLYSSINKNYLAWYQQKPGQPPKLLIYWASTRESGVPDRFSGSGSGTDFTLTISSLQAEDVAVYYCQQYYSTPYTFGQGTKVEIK
As to B1, the Kd – broadly, a measure of binding affinity in units of concentration – was determined as 80 nM.
